The chains are these.
B1: Pistol ribozyme (parent)
chain: GGGUCGUUGUUCCAUAAUCGCGUGGAUAUGGCACGCAAGUUUCUACCGGGCACCGUAAAUGUCCGACUGGAGCCGUUCGGGCGGCUAUAAACAGACCUCAGGCCCGAAGCGUGGCGGCACCUGCCGCCGGUGGUAAAAAAGAUCGGAAGAGCACACGUCU

Consider 83 variants from the RNAGym collection of RNA variant scans (doi:10.1021/acssynbio.7b00057).

This data set covers variants of B1. In words: aptazyme ON/OFF ratio, guanine; higher = stronger switching; co-transcriptional cleavage with and without guanine.
In the case of U7G U8G G9U U10C U11G C12G C13G, the “aptazyme ON/OFF ratio” value worked out at 1.15.

For U7G U8G G9U U10C U11G C12G C13A, the “aptazyme ON/OFF ratio” value amounted to 1.16.

For the variant U7G U8G U10G U11A C12A C13A, the “aptazyme ON/OFF ratio” value was found to be 1.17.

Take U7G U8G U10G U11A C12A C13U: the “aptazyme ON/OFF ratio” value came out at 1.23.

Regarding U7G U8G U10G U11A C12A C13G, the “aptazyme ON/OFF ratio” value amounted to 1.31.

For the variant U7G U8G G9U U10G U11G C13G, the “aptazyme ON/OFF ratio” value turned out to be 1.08.

For U7G U8G G9U U10G U11G C13A, the “aptazyme ON/OFF ratio” value turned out to be 1.06.

For the variant U7G U8G G9U U10G U11G C13U, the “aptazyme ON/OFF ratio” value worked out at 1.11.

Consider U7G U8G G9U U10G C12U C13A, for which the “aptazyme ON/OFF ratio” value came out at 1.17.

As to U7G U8G G9U U10G C12U C13G, the “aptazyme ON/OFF ratio” value was 1.21.

For U7G U8G G9U U10G C12U C13U, the “aptazyme ON/OFF ratio” value amounted to 1.2.

On to U7G U8G G9U U10C C13A, for which the “aptazyme ON/OFF ratio” value amounted to 1.43.

As for U7G U8G G9U U10C C13U, the “aptazyme ON/OFF ratio” value is 1.28.

In the case of U7G U8G G9U U10C C13G, the “aptazyme ON/OFF ratio” value is 1.31.

On to U7G U8G G9U U10C U11C C12U C13A, for which the “aptazyme ON/OFF ratio” value turned out to be 1.18.

For the variant U7G U8G G9U U10C U11C C12U C13U, the “aptazyme ON/OFF ratio” value was found to be 1.37.

On to U7G U8G G9U U10C U11C C12U C13G, for which the “aptazyme ON/OFF ratio” value was found to be 1.41.

For the variant U7G U8G G9U U11A C12G C13G, the “aptazyme ON/OFF ratio” value amounted to 1.06.

With U7G U8G G9U U11A C12G C13A, the “aptazyme ON/OFF ratio” value turned out to be 1.15.

Consider U7G U8G G9U U11A C12G C13U, for which the “aptazyme ON/OFF ratio” value turned out to be 1.16.

In the case of U7G U8G U10A U11A C12A C13U, the “aptazyme ON/OFF ratio” value came to 1.21.

For the variant U7G U8G U10A U11A C12A C13G, the “aptazyme ON/OFF ratio” value was 1.22.

For U7G U8G U10A U11A C12A C13A, the “aptazyme ON/OFF ratio” value worked out at 1.31.

For U7G U8G G9U U11G C12G C13U, the “aptazyme ON/OFF ratio” value amounted to 1.22.

With U7G U8G G9U U11G C12G C13G, the “aptazyme ON/OFF ratio” value turned out to be 1.14.

Consider U7G U8G G9U U11G C12G C13A, for which the “aptazyme ON/OFF ratio” value was determined as 1.05.

As for U7G U8G G9U U10G U11C C13G, the “aptazyme ON/OFF ratio” value was determined as 1.17.

Turning to U7G U8G G9U U10G U11C C13A, the “aptazyme ON/OFF ratio” value was found to be 1.18.

With U7G U8G G9U U10G U11C C13U, the “aptazyme ON/OFF ratio” value is 1.11.

Regarding U7G U8G G9U U10G U11A C12A C13U, the “aptazyme ON/OFF ratio” value worked out at 1.18.

For the variant U7G U8G G9U U10G U11A C12A C13A, the “aptazyme ON/OFF ratio” value is 1.07.

Turning to U7G U8G G9U U10G U11A C12A C13G, the “aptazyme ON/OFF ratio” value was 1.06.

With U7G U8G U10G U11A C12U C13G, the “aptazyme ON/OFF ratio” value was determined as 1.17.

For U7G U8G U10G U11A C12U C13U, the “aptazyme ON/OFF ratio” value is 1.17.

As to U7G U8G U10G U11A C12U C13A, the “aptazyme ON/OFF ratio” value is 1.33.

With U7G U8G U10A U11A C12U, the “aptazyme ON/OFF ratio” value turned out to be 1.25.

In the case of U7G U8G U10A U11A C12A, the “aptazyme ON/OFF ratio” value is 1.13.

U7G U8G U10A U11A C12G: the “aptazyme ON/OFF ratio” value amounted to 1.22.

In the case of U7G U8G U10C C12G, the “aptazyme ON/OFF ratio” value was determined as 1.09.

On to U7G U8G U10C C12U, for which the “aptazyme ON/OFF ratio” value was 1.52.

U7G U8G U10C C12A: the “aptazyme ON/OFF ratio” value stood at 1.49.

For U7G U8G G9U U10G U11A C13G, the “aptazyme ON/OFF ratio” value amounted to 1.16.

For the variant U7G U8G G9U U10G U11A C13U, the “aptazyme ON/OFF ratio” value was 1.19.

As for U7G U8G G9U U10G U11A C13A, the “aptazyme ON/OFF ratio” value was 1.13.

Take U7G U8G U10A C13G: the “aptazyme ON/OFF ratio” value amounted to 1.29.

On to U7G U8G U10A C13U, for which the “aptazyme ON/OFF ratio” value was found to be 1.36.

For U7G U8G U10A C13A, the “aptazyme ON/OFF ratio” value turned out to be 1.34.

Consider U7G U8G U10C U11C C12G, for which the “aptazyme ON/OFF ratio” value was determined as 1.18.

Turning to U7G U8G U10C U11C C12U, the “aptazyme ON/OFF ratio” value was determined as 1.35.

Take U7G U8G U10C U11C C12A: the “aptazyme ON/OFF ratio” value worked out at 1.41.

Regarding U7G U8G G9U U10C U11C C13G, the “aptazyme ON/OFF ratio” value came out at 1.21.

As to U7G U8G G9U U10C U11C C13U, the “aptazyme ON/OFF ratio” value is 1.37.

In the case of U7G U8G G9U U10C U11C C13A, the “aptazyme ON/OFF ratio” value is 1.28.

For the variant U7G U8G U10A U11C C12U, the “aptazyme ON/OFF ratio” value worked out at 1.42.

Take U7G U8G U10A U11C C12A: the “aptazyme ON/OFF ratio” value amounted to 1.4.

In the case of U7G U8G U10A U11C C12G, the “aptazyme ON/OFF ratio” value is 1.25.

Regarding U7G U8G G9U U11A C12G, the “aptazyme ON/OFF ratio” value turned out to be 1.29.

As to U7G U8G G9U U11A C12U, the “aptazyme ON/OFF ratio” value came out at 1.54.

For U7G U8G G9U U11A C12A, the “aptazyme ON/OFF ratio” value was 1.43.

Take U7G U8G U10A U11G C13U: the “aptazyme ON/OFF ratio” value was found to be 1.33.

On to U7G U8G U10A U11G C13G, for which the “aptazyme ON/OFF ratio” value was 1.18.

Consider U7G U8G U10A U11G C13A, for which the “aptazyme ON/OFF ratio” value is 1.18.

Take U7G U8G G9U U11A C12U C13U: the “aptazyme ON/OFF ratio” value came out at 1.23.

As to U7G U8G G9U U11A C12U C13A, the “aptazyme ON/OFF ratio” value is 1.33.

With U7G U8G G9U U11A C12U C13G, the “aptazyme ON/OFF ratio” value stood at 1.28.

For U7G U8G U10C U11G C13A, the “aptazyme ON/OFF ratio” value came to 1.26.

As to U7G U8G U10C U11G C13U, the “aptazyme ON/OFF ratio” value turned out to be 1.47.

As for U7G U8G U10C U11G C13G, the “aptazyme ON/OFF ratio” value amounted to 1.21.

With U7G U8G G9U U10C U11C C12G C13G, the “aptazyme ON/OFF ratio” value was found to be 1.12.

On to U7G U8G G9U U10C U11C C12G C13U, for which the “aptazyme ON/OFF ratio” value was 1.33.

For the variant U7G U8G G9U U10C U11C C12G C13A, the “aptazyme ON/OFF ratio” value was 1.19.

Consider U7G U8G G9U U10G U11G C12A C13A, for which the “aptazyme ON/OFF ratio” value amounted to 1.04.

Turning to U7G U8G G9U U10G U11G C12A C13U, the “aptazyme ON/OFF ratio” value stood at 1.06.

Turning to U7G U8G G9U U10G U11G C12A C13G, the “aptazyme ON/OFF ratio” value came out at 1.1.

Consider U7G U8G G9U U10C U11A, for which the “aptazyme ON/OFF ratio” value was determined as 1.47.

In the case of U7G U8G G9U U10C U11C, the “aptazyme ON/OFF ratio” value was found to be 2.05.

For the variant U7G U8G G9U U10C U11G, the “aptazyme ON/OFF ratio” value stood at 1.28.

As to U7G U8G U10A U11C C12U C13U, the “aptazyme ON/OFF ratio” value is 1.5.

For U7G U8G U10A U11C C12U C13G, the “aptazyme ON/OFF ratio” value came out at 1.25.

Take U7G U8G U10A U11C C12U C13A: the “aptazyme ON/OFF ratio” value was 1.42.

As to U7G U8G G9U U10G U11G C12U C13A, the “aptazyme ON/OFF ratio” value came to 1.11.

On to U7G U8G G9U U10G U11G C12U C13U, for which the “aptazyme ON/OFF ratio” value was found to be 1.18.

In the case of U7G U8G G9U U10G U11G C12U C13G, the “aptazyme ON/OFF ratio” value was 1.12.
